{"source": "paper PMC10221975", "about": "(Pharmaceutics, 2023)", "molecular_target": "the molecule itself", "assay": "dynamic light scattering; after irradiation of the N2O-saturated solution with 0.1 M NaN3 (oxidation by N3 radicals), 70 μM protein, 25 °C; the species seen are held by covalent bonds (dityrosine)", "data": [{"protein": "papain (enzyme, UniProt P00784 134-345, looked up, papain; source: bought: Roth (8933.1), used as received) IPEYVDWRQKGAVTPVKNQGSCGSCWAFSAVVTIEGIIKIRTGNLNEYSEQELLDCDRRSYGCNGGYPWSALQLVAQYGIHYRNTYPYEGVQRYCRSREKGPYAAKTDGVRQVQPYNEGALLYSIANQPVSVVLEAAGKDFQLYRGGIFVGPCGNKVDHAVAAVGYGPNYILIKNSWGTGWGENGYIRIKRGTGNSYGVCGLYTSSFYPVKN", "values": [{"measurement": "stoichiometry N", "result": 2}]}]}
